# B1: mature wild-type S. cerevisiae PIM1 lacking the mitochondrial targeting sequence (Met182 – Asp1133) (enzyme, UniProt P36775 182-1133, looked up)
# chain: MLALPIARRPLFPGFYKAVVISDERVMKAIKEMLDRQQPYIGAFMLKNSEEDTDVITDKNDVYDVGVLAQITSAFPSKDEKTGTETMTALLYPHRRIKIDELFPPNEEKEKSKEQAKDTDTETTVVEDANNPEDQESTSPATPKLEDIVVERIPDSELQHHKRVEATEEESEELDDIQEGEDINPTEFLKNYNVSLVNVLNLEDEPFDRKSPVINALTSEILKVFKEISQLNTMFREQIATFSASIQSATTNIFEEPARLADFAAAVSAGEEDELQDILSSLNIEHRLEKSLLVLKKELMNAELQNKISKDVETKIQKRQREYYLMEQLKGIKRELGIDDGRDKLIDTYKERIKSLKLPDSVQKIFDDEITKLSTLETSMSEFGVIRNYLDWLTSIPWGKHSKEQYSIPRAKKILDEDHYGMVDVKDRILEFIAVGKLLGKVDGKIICFVGPPGVGKTSIGKSIARALNRKFFRFSVGGMTDVAEIKGHRRTYIGALPGRVVQALKKCQTQNPLILIDEIDKIGHGGIHGDPSAALLEVLDPEQNNSFLDNYLDIPIDLSKVLFVCTANSLETIPRPLLDRMEVIELTGYVAEDKVKIAEQYLVPSAKKSAGLENSHVDMTEDAITALMKYYCRESGVRNLKKHIEKIYRKAALQVVKKLSIEDSPTSSADSKPKESVSSEEKAENNAKSSSEKTKDNNSEKTSDDIEALKTSEKINVSISQKNLKDYVGPPVYTTDRLYETTPPGVVMGLAWTNMGGCSLYVESVLEQPLHNCKHPTFERTGQLGDVMKESSRLAYSFAKMYLAQKFPENRFFEKASIHLHCPEGATPKDGPSAGVTMATSFLSLALNKSIDPTVAMTGELTLTGKVLRIGGLREKAVAAKRSGAKTIIFPKDNLNDWEELPDNVKEGLEPLAADWYNDIFQKLFKDVNTKEGNSVWKAEFEILDAKKEKD
# Target: the molecule itself
# Test: cryo-EM structure
protein,measurement,value
B1,stoichiometry N,6

# Source: doi:10.1101/2021.11.24.469940 (bioRxiv, 2021)
